Assay results published in US20060172386A1.

How the values were obtained:
[1] = target: recombinant extracellular domain of FGFR-3c; experiment: SPR (BIACORE 2000), FGF-20 fixed on CM5 chip, receptor extracellular domain as analyte
[2] = target: recombinant extracellular domain of FGFR-2c; experiment: as above

Kd [1]: 217 nM
koff [1]: 0.0247 s⁻¹
kon [1]: 115000 M⁻¹ s⁻¹
Kd [2]: 28.1 nM
koff [2]: 0.0167 s⁻¹
kon [2]: 595000 M⁻¹ s⁻¹
Substance: Recombinant FGF-20 (from UniProt Q9EST9 1-212) (ligand)
